This note sets out measurements from patent US20230094867A1 (Janssen / Centocor, published 2023).

“And” between values parts separate entries of the source, which are not always exact repeats. Equal entries are not always repeated.

For test [1], the target named is T1, CD79b CAR (CD9B441-HL) expressed on SupT1 cells.
T1 construct: Chimeric antigen receptor with the CD9B441 scFv in VH-VL order; also called SupT1-CD9B441-HL; CD9B441-HL SupT1 cells
The test can be described thus: flow cytometry on live CD9B441-HL SupT1 cells with directly rPE-conjugated antibody; PE median fluorescence intensity. A general note: Flow cytometry measures light scatter and fluorescence of single cells or particles in a stream.

Test [2] concerns the target T2, CD9B503 (CD9B441-HL-scFv-Fc bivalent fusion protein) (Biotinylated in the panning and MSD screening assays of Example 1.).
T2 construct: also called CD9B441-derived scFv-fusion protein
Briefly: SPR (Biacore), mAb captured on anti-mouse Fc chip, scFv-Fc antigen 100 nM to 0.16 nM in solution. How it is done: (§1) Biacore system (Cytiva) was used to measure bio-molecular interactions by surface plasmon resonance (SPR). Anti-Mouse Fc antibody directly immobilized on a CMS sensor chip. Library Antibodies (Mouse IgG2a) diluted to 1 ug/ml to reach approximately 20-60 RU. Antigens (scFv Fc fusions) are associated at 100 nM to 0.16 nM, 1:5 dilutions for 3 minutes. Dissociation for 30 mins. The results of the assay (Table 1 below) show the nanomolar dissociation constant of A003B192 and A003B274 with CD9B503 (CD9B441-HL-scFv-Fc bivalent fusion protein) and CD9B574 (CD9B441-LH-scFv-Fc monovalent fusion protein).
(SPR reads the build-up and loss of mass on a sensor chip optically.)

Test [3] deals with T3, CD9B574 (CD9B441-LH-scFv-Fc monovalent fusion protein).
T3 construct: Described only as CD9B441-LH-scFv-Fc monovalent fusion protein
T3 sequence (scFv, as listed by the source limits assumed): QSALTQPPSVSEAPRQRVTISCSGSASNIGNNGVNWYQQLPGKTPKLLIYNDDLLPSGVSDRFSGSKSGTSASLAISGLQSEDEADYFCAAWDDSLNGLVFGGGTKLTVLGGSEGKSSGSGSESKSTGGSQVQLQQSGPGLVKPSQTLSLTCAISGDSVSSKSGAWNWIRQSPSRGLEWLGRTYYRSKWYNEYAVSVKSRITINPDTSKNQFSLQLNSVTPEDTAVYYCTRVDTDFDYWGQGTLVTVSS
Described as above. Here is the method: as §1

Test [4] addresses T1, CD79b CAR (CD9B441-HL) expressed on …. The test can be described thus: flow cytometry on live CD9B441-HL SupT1 cells, detected with PE goat anti-mouse IgG; PE median fluorescence intensity. How it is done:
SupT1 cells expressing CD9B441-HL were compared to parental CAR-SupT1 cells. Cells (200,000 cells/well) were stained with LIVE/DEAD Fixable Near-IR viability dye (Life Technologies cat #L10119) and then incubated with increasing concentrations of A003B192 and A003B274 for 45 minutes on ice. In addition, both anti-idiotypic antibodies were tested in the presence of Fc-CD9B441-HL fusion protein to assess the specificity of A003B192 and A003B274 binding to CD9B441-HL CAR. Following incubation, the samples were washed with BSA stain buffer (BD Biosciences cat #554657) and stained with PE-goat anti-mouse IgG polyclonal antibody (Biolegend cat #405307) to detect bound antibody on live CAR+SupT1 cells. After incubation, washing, and fixation (Cytofix, BD Biosciences cat #554655), the samples were acquired on a 10 color FACSCanto II (BD Biosciences) flow cytometer. Analysis was done using FlowJo (TreeStar) and the PE median fluorescent intensity of live CAR+SupT1 cells plotted in FIG. 3A. No binding was detected on CAR-SupT1 parental cells (data not shown) or in the presence of excess Fc-CD9B441-HL CAR fusion protein.

The target of test [5] is T2, CD9B503 (CD9B441-HL-scFv-Fc bivalent …). Briefly: MSD electrochemiluminescent immunoassay, crude Fab lysate on biotinylated scFv-Fc on streptavidin plate. How it is done:
The monoclonal Fab lysates prepared from the enriched Fab libraries were screened in Meso Scale Discovery (MSD) based electro-chemiluminescent immunoassays (ECLIA) for binding to CD9B503 but not to a similar negative control scFv fusion protein CD9B504 (CD9B449-HL-scFv Fc). Biotinylated ScFv-Fc fusion antigens, target antigen CD9B503 or negative control scFv fusion protein counter screening reagent CD9B504, were diluted to a concentration of 2.5 nM in SuperBlock T20 (TBS) Blocking Buffer (Thermo cat #37536) and 50 ul/well was added to their respective MSD 384-well streptavidin plates (Meso Scale Discovery cat #L21SA-5) and incubated on a shaker for 30 min at RT. The plates were washed 1×80 ul/well 1×PBST and crude Fab lysates from E. coli expressions in 96-well plates were stamped into the 384-well assay plates in duplicate and incubated on a shaker for 1 hour at RT. The assay plates were washed 1×80 ul/well 1×PBST and 6 nM of SULFO-TAG Anti-human/NHP Kappa Antibody (Meso Scale cat #D20TF-6) added at 10 ul/well, and the plates incubated on a shaker for 1 hour at RT. The plates were washed 2×80 ul/well 1×PBST and 35 ul/well of 1×MSD Read Buffer T (Meso Scale cat #R92TC-1) added to each well and the plates analyzed on an MSD Sector 5600 plate reader. […]

The EC50 (read off the curve) is the concentration giving half of the maximal effect. Read a high EC50 (read off the curve) as lower potency in that assay.

T1 sequence (chain, as listed by the source limits assumed): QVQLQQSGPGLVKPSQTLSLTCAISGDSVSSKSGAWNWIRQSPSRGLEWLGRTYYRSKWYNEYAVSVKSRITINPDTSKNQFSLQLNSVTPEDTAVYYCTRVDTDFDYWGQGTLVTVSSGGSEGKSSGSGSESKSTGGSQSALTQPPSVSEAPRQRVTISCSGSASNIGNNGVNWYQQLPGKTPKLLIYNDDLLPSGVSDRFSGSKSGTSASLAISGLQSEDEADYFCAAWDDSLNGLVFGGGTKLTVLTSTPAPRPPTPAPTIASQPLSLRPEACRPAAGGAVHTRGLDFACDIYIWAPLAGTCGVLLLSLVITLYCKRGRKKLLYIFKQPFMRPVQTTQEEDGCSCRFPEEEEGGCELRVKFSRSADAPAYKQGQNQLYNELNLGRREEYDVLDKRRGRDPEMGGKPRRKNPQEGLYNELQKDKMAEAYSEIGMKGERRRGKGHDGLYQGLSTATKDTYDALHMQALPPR
T2 sequence (scFv, as listed by the source limits assumed): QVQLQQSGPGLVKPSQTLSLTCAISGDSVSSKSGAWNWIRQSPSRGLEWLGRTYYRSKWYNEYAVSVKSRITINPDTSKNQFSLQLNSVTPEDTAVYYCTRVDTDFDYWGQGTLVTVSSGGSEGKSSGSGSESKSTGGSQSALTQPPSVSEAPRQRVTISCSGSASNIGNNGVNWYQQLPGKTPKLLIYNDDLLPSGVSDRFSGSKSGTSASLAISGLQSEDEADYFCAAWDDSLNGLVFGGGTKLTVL

B1: recombinant phycoerythrin-conjugated A003B192 (antibody, mouse IgG2a, kappa, V domains shown)
VH: QVQLVQSGAEVKKPGSSVKVSCKASGGTFKSDAISWVRQAPGQGLEWMGGIRPNEGNAEYAQKFQGRVTITADESTSTAYMELSSLRSEDTAVYYCARGRYGAYRLVYYAFDYWGQGTLVTVSS
VL: not shown
modifications: antibody conjugated to recombinant phycoerythrin (rPE), 1:1 PE:antibody; site of attachment not stated
notes: also called A003B192 conjugated to rPE; PE-antibody conjugate
With B1, the binding result in test [1] was “binds”.

B2: A003B192 (antibody, mouse IgG2a, kappa, V domains shown)
VH: QVQLVQSGAEVKKPGSSVKVSCKASGGTFKSDAISWVRQAPGQGLEWMGGIRPNEGNAEYAQKFQGRVTITADESTSTAYMELSSLRSEDTAVYYCARGRYGAYRLVYYAFDYWGQGTLVTVSS
VL: not shown
notes: also called anti-idiotypic antibody A003B192; HC construct PBD000109791 / LC construct PBD00098715
For B2, the Kd was 0.04 nM and 0.037 nM in test [2]; 1.6 nM and 1.61 nM in test [3]. The “EC50 (read off the curve)” value in test [4] was roughly 0.02 µg/mL.

B3: CL002588468 (monoclonal Fab, parent clone for the VH and VL in A003B192) (Fab, V domains shown)
VH: QVQLVQSGAEVKKPGSSVKVSCKASGGTFKSDAISWVRQAPGQGLEWMGGIRPNEGNAEYAQKFQGRVTITADESTSTAYMELSSLRSEDTAVYYCARGRYGAYRLVYYAFDYWGQGTLVTVSS
VL: not shown
notes: Soluble human Fab in crude E. coli lysate
As for B3, the “signal ratio of CD9B503 over CD9B504” value in test [5] stood at 10.

B4: A003B274 (antibody, mouse IgG2a, kappa, V domains shown)
VH: QVQLVQSGAEVKKPGSSVKVSCKASGGTFKSYAISWVRQAPGQGLEWMGYISPESGTANYAQKFQGRVTITADESTSTAYMELSSLRSEDTAVYYCARERYYYGYRRYRYYGMDVWGQGTLVTVSS
VL: not shown
notes: also called anti-idiotypic antibody A003B274; HC construct PBD000109922 / LC construct PBD00098715
As to B4, the Kd in test [2] is 0.23 nM and 0.226 nM. The concentration giving a half-maximal response (EC50 (read off the curve)) in test [4] is roughly 0.04 µg/mL.

B5: CL002588437 (monoclonal Fab, parent clone for the VH and VL in A003B274) (Fab, V domains shown)
VH: QVQLVQSGAEVKKPGSSVKVSCKASGGTFKSYAISWVRQAPGQGLEWMGYISPESGTANYAQKFQGRVTITADESTSTAYMELSSLRSEDTAVYYCARERYYYGYRRYRYYGMDVWGQGTLVTVSS
VL: not shown
notes: as for B3
Consider B5, for which, in test [5], the “signal ratio of CD9B503 over CD9B504” value turned out to be 10.
